Assay results taken from PMC4147313.
Values belong to the molecule of their own block, whether it stands above or below them.

Tests used:
[1] = molecular target: formyl-peptide receptors (FPRs) of CHO-K1 cells (Chinese hamster (endogenous in CHO-K1))
[2] = molecular target: formyl-peptide receptor (FPR) (human (endogenous in SKOV-3)) (UniProt P21462)
[3] = molecular target: formyl-peptide receptor (FPR) (human (endogenous in SKOV-3)) (UniProt P21462); remark: listed apart in the source
[4] = molecular target: formyl-peptide receptors (FPRs) of CHO-K1 cells (Chinese hamster (endogenous in CHO-K1)); remark: listed apart in the source

Chain of UniProt P21462 (P21462 whole entry): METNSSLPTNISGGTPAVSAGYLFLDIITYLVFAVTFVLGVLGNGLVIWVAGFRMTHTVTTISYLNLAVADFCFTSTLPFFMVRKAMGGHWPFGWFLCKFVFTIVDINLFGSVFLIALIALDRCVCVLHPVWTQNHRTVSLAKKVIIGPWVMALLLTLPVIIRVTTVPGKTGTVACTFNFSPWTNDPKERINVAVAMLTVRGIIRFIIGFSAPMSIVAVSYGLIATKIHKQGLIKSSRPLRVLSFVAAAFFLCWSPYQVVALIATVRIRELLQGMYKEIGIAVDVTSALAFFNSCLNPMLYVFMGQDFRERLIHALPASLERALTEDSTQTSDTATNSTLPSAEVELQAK

reduction by 10 nM RERF peptide of the Cell Index of CHO-K1/D1D2D3 cells invading matrigel toward serum (xCELLigence, after 18 hrs) (% reduction of Cell Index) [1]: 75
Molecule: wild type, full length uPAR (D1D2D3) on CHO-K1 cells (from UniProt Q03405 23-305) (receptor)

migration of wild type CHO-K1 cells toward 10 nM SRSRY (Boyden chamber, 4 hrs, 37°C), percent of basal (% of the basal cell migration) [4]: 177
Molecule: SRSRY [SRSRY peptide (uPAR 88-92, Ser-Arg-Ser-Arg-Tyr)]

Continued, molecule first:

Molecule: truncated uPAR lacking the D1 domain and exposing the 84-95 sequence (uPARD2D3) on CHO-K1 cells (domain or fragment)
reduction by 10 nM RERF peptide of the Cell Index of CHO-K1/D2D3 cells invading matrigel toward serum (xCELLigence, after 18 hrs) (% reduction of Cell Index) [1]: 83

Molecule: urokinase receptor (uPAR) (from UniProt Q03405 23-305)
reduction of migration of SKOV-3 cells toward 10% FBS by RERF peptide, 10 fM to 10 pM (35% at 10 fM, 60% at 10 pM) (% reduction of cell migration) [2]: 60
reduction by 10 nM RERF peptide of the Cell Index of SKOV-3 cells invading matrigel toward serum (xCELLigence, 18 hrs); anti-uPAR84-95 polyclonal antibody reduced it by 50% (% reduction of Cell Index) [3]: 86
